Results taken from patent EP4793287A1, “TUMOR MICROENVIRONMENT SPECIFICALLY ACTIVATED CD47 ANTIBODY” (Affinity (Shanghai) Biopharmaceutical Co., Ltd., priority 2023, dated 2025).

Assays:
human CD47 antigen = human CD47 antigen (Homo sapiens, UniProt Q08722); assay: Affinity measurement by SPR (BIAcore T200); settings: 25 °C, 1:1 binding model
Method: The binding affinity between the antigen and the antibody was measured using a BIAcore T200 instrument. The binding strength between the CD47 antigen and the antibody was determined using a CM5 chip (purchased from Cytiva, Cat# 29149603) via amine coupling. First, the CD47 antigen was immobilized onto the CM5 chip. According to the instructions of the Amine Coupling Kit (purchased from Cytiva, Cat# BR100050), using PBST as the running buffer, NHS and EDC were mixed and injected to activate the chip for approximately 420 seconds. The CD47 antigen was diluted to 10 µg/mL in 10 mM sodium acetate (pH 5.5) and injected to achieve an immobilization level of 141.2 RU. Finally, the remaining activated sites were blocked with 1 M ethanolamine (pH 8.5). Subsequently, the affinity of the antibody for the CD47 antigen was determined using the multi-cycle kinetics method. In each cycle, a single concentration of the antibody protein was injected, and the association and dissociation processes between the antibody and the antigen protein were recorded. Finally, the chip was regenerated with Glycine-HCl (pH 1.5). […] Data were analyzed according to a 1:1 binding model, and the kinetic parameters of antibody-antigen binding, including the association rate constant (Ka), dissociation rate constant (Kd), equilibrium dissociation constant (KD), and maximum binding signal (Rmax), were fitted.

[1] = molecular target: T1, binding of CD47 on Raji cells to SIRPα (Homo sapiens, UniProt Q08722); assay: Blocking of SIRPα binding on Raji cells (FACS); assay type: cell-based
T1 construct: endogenous in cells; host or cells: Raji
T1 sequence (Q08722 19-323): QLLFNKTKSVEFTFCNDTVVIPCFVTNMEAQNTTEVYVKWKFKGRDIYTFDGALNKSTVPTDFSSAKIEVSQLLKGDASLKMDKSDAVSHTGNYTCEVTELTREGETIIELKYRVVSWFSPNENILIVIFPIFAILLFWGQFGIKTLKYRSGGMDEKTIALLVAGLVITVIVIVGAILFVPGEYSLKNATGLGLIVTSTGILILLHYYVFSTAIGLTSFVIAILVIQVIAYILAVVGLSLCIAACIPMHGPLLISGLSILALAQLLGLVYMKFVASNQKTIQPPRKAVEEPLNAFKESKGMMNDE
Method: The required cell line, Raji (cultured in RPMI-1640 (ATCC Modification, Gibco, Cat# A10491-01) + 10% FBS (BI, Cat# 04-001-1A) + 1× P/S), was expanded to the logarithmic phase. Cells were collected and pipetted to create a single-cell suspension, followed by centrifugation and removal of the supernatant. The cells were resuspended in FACS buffer (PBS + 2% FBS) and counted, and the cell density was adjusted to 2×10^6/ml. 100 µl/well of this suspension was added to a 96-well plate (Corning, Cat# 3799). After centrifugation and removal of the supernatant, 100 µl/well of the antibody sample to be tested (CD47 Antibodies at an initial concentration of 200 nM, with 5-fold gradient dilutions and 8 dilution points, mixed with an equal volume of Human SIRP alpha, mFc (DIMA Biotech, Cat# PME100531) at 16 µg/ml) was added, mixed with the cells, and incubated at 4 °C for 1 hour. Cells were washed by centrifugation with FACS buffer for three times, then added with 100 µl/well of Goat F(ab')2 Anti-Mouse IgG-Fc (PE), pre-adsorbed (abcam, Cat# ab98742, 1:200 dilution) and incubated at 4 °C for 1 hour. After three washes with FACS buffer by centrifugation, the cells were resuspended in 200 µl/well of FACS buffer and analyzed using FACS (BECKMAN COULTER, CytoFLEX). Data were fitted and the results were analyzed using software (GraphPad Prism 8).

[2] = system: Human small cell lung cancer SHP-77 cells; assay: In vivo efficacy, subcutaneous SHP-77 tumor model (Example 11); design: species or system CB17-SCID mice; settings: for T/C ratio / TGI inhibition rate: after 38 days of treatment
Method: Human small cell lung cancer SHP-77 cells were subcutaneously transplanted into CB17-SCID mice to establish an in vivo model. SHP-77 cells were cultured according to standard culture conditions and were collected during the exponential growth phase for counting. Each mouse was inoculated on the right flank with 2.5×10^6 human small cell lung cancer SHP-77 cells (suspended in 0.1 ml of basal medium). After inoculation, when the tumors grew to 60-103 mm^3 (5 days post-tumor implantation), the mice were randomly grouped based on body weight and tumor volume. The experimental groups were divided as follows:
Treatment was started on the day of grouping. Mice were weighed, and tumor volumes were measured twice a week. Tumor volume was calculated using the formula: tumor volume = 1/2 × length × width × width (mm^3). The tumor growth inhibition rate TGI (%) was calculated as [1 - (Tt - T0) / (Ct - C0)] × 100%. The tumor inhibition rate T/C (%) was calculated as (Tt/T0) / (Ct/C0) × 100%. T0 represents the tumor volume of the test antibody group at the time of grouping; Tt represents the tumor volume of the test antibody group at each measurement; C0 represents the average tumor volume of the PBS group at the time of grouping; Ct represents the average tumor volume of the PBS group at each measurement.

Chain of human CD47 antigen (Q08722 19-323): as above

B1: CD47 TMEAbody: CD47 TMEAbody conjugated with PEG of approximately 20K molecular weight (i.e., PEG20K) (conjugate)
VH: QQQLEESGGGLVKPEGSLTLTCTASGFSFSSGYDMCWVRQAPGRGLEWIACIYTRSSGGTCYASWAKGRFTISKTSSTVDLRMTSLTAADTATYFCAGGRSSYRLNLWGQGALVTVSS
VL: DVVMTQTPSPVEAAVGGTVTIKCQASQSISNELSWYQQKPGQPPKLLIYRASTLESGVSSRFKGSGSGTEFTLTISDLECADAATYYCQSTFYGDYGNAFGGGTEVVVK
Ka (human CD47 antigen): 24400 M⁻¹ s⁻¹
activity in blocking the binding of CD47 on Raji cells to SIRPα ([1]; after the CD47 TMEAbody was activated): restored
activity in blocking the binding of CD47 on Raji cells to SIRPα ([1]; not activated): significantly reduced
Tumor Volume ([2]; 0.3 mg/kg, D0): 79.15 mm^3
Tumor Volume ([2]; 0.3 mg/kg, D3): 63.51 mm^3
Tumor Volume ([2]; 0.3 mg/kg, D7): 44.29 mm^3
Tumor Volume ([2]; 0.3 mg/kg, D10): 42.63 mm^3
Tumor Volume ([2]; 0.3 mg/kg, D14): 42.49 mm^3
Tumor Volume ([2]; 0.3 mg/kg, D17): 44.81 mm^3
Tumor Volume ([2]; 0.3 mg/kg, D21): 74.08 mm^3
Tumor Volume ([2]; 0.3 mg/kg, D24): 116.17 mm^3
Tumor Volume ([2]; 0.3 mg/kg, D28): 142.04 mm^3
Tumor Volume ([2]; 0.3 mg/kg, D31): 194.29 mm^3
Tumor Volume ([2]; 0.3 mg/kg, D35): 272.39 mm^3
Tumor Volume ([2]; 0.3 mg/kg, D38): 373.67 mm^3
T/C ratio ([2]; 0.3 mg/kg): 29.52%
TGI inhibition rate ([2]; 0.3 mg/kg): 75.38%
Tumor Volume ([2]; 1 mg/kg, D0): 79.75 mm^3
Tumor Volume ([2]; 1 mg/kg, D3): 69.70 mm^3
Tumor Volume ([2]; 1 mg/kg, D7): 47.94 mm^3
Tumor Volume ([2]; 1 mg/kg, D10): 36.61 mm^3
Tumor Volume ([2]; 1 mg/kg, D14): 32.95 mm^3
Tumor Volume ([2]; 1 mg/kg, D17): 20.93 mm^3
Tumor Volume ([2]; 1 mg/kg, D21): 19.98 mm^3
Tumor Volume ([2]; 1 mg/kg, D24): 27.75 mm^3
Tumor Volume ([2]; 1 mg/kg, D28): 17.69 mm^3
Tumor Volume ([2]; 1 mg/kg, D31): 21.42 mm^3
Tumor Volume ([2]; 1 mg/kg, D35): 15.37 mm^3
Tumor Volume ([2]; 1 mg/kg, D38): 14.44 mm^3
T/C ratio ([2]; 1 mg/kg): 1.13%
TGI inhibition rate ([2]; 1 mg/kg): 105.46%
Tumor Volume ([2]; 3 mg/kg, D0): 79.00 mm^3
Tumor Volume ([2]; 3 mg/kg, D3): 65.86 mm^3
Tumor Volume ([2]; 3 mg/kg, D7): 44.80 mm^3
Tumor Volume ([2]; 3 mg/kg, D10): 33.94 mm^3
Tumor Volume ([2]; 3 mg/kg, D14): 27.48 mm^3
Tumor Volume ([2]; 3 mg/kg, D17): 24.62 mm^3
Tumor Volume ([2]; 3 mg/kg, D21): 9.14 mm^3
Tumor Volume ([2]; 3 mg/kg, D24): 13.52 mm^3
Tumor Volume ([2]; 3 mg/kg, D28): 10.79 mm^3
Tumor Volume ([2]; 3 mg/kg, D31): 17.13 mm^3
Tumor Volume ([2]; 3 mg/kg, D35): 14.44 mm^3
Tumor Volume ([2]; 3 mg/kg, D38): 12.85 mm^3
T/C ratio ([2]; 3 mg/kg): 1.02%
TGI inhibition rate ([2]; 3 mg/kg): 105.53%
tumor growth inhibition ([2]; 0.3-3 mg/kg): significant tumor growth inhibition
changes in body weight ([2]; during the treatment period): No significant changes in body weight
